From US20220049236A1
pEC50: −log10 of the molar value.

Key:
[1] = molecular target: Nidogen-1 (human) (UniProt P14543); experiment: IP from HDF supernatant, LFQ mass spectrometry; ratio against Fc control
[2] = molecular target: Heat shock 70 kDa protein 6/7 (human) (UniProt P17066); experiment: as above
[3] = molecular target: LPD displayed on the surface of yeast cells (EBY100) (Saccharomyces cerevisiae; human) (UniProt P32781); experiment: flow cytometry of yeast cells displaying LPD, stained with Atto 633-labelled HSP70; the sample histogram is shifted to the right of the control histogram, whose Median RFU is printed as 26
[4] = molecular target: HSP70 (UniProt P0DMV8); experiment: ELISA, plate coated with HSP70, bound protein detected with peroxidase-conjugated anti-human antibody
[5] = molecular target: HSP70 (UniProt P0DMV8); experiment: ELISA, plate coated with HSP70
[6] = molecular target: Nidogen-1 (human) (UniProt P14543); experiment: IP from HDF supernatant, LFQ mass spectrometry; ratio against the glycosylation mutant
[7] = molecular target: Heat shock 70 kDa protein 6/7 (human) (UniProt P17066); experiment: as above

Sequence of Heat shock 70 kDa protein 6/7 (human) (P17066 whole entry): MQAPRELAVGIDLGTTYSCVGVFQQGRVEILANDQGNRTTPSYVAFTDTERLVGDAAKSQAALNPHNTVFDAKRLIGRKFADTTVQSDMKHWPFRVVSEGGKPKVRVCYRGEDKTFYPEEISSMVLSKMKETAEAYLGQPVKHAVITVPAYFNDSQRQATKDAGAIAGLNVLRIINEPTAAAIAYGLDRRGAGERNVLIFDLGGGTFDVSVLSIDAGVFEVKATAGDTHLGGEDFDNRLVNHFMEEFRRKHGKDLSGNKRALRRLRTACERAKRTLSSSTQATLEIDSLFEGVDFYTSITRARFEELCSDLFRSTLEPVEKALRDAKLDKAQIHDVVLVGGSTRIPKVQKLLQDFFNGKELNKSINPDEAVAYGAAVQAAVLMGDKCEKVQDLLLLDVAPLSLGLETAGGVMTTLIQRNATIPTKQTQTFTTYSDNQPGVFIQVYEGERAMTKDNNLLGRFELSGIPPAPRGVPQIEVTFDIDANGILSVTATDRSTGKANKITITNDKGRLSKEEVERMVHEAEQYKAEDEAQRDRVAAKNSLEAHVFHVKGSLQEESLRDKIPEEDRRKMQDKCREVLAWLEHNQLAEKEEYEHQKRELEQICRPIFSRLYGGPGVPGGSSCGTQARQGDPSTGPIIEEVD
Sequence of Nidogen-1 (human) (P14543 29-1247 limits assumed): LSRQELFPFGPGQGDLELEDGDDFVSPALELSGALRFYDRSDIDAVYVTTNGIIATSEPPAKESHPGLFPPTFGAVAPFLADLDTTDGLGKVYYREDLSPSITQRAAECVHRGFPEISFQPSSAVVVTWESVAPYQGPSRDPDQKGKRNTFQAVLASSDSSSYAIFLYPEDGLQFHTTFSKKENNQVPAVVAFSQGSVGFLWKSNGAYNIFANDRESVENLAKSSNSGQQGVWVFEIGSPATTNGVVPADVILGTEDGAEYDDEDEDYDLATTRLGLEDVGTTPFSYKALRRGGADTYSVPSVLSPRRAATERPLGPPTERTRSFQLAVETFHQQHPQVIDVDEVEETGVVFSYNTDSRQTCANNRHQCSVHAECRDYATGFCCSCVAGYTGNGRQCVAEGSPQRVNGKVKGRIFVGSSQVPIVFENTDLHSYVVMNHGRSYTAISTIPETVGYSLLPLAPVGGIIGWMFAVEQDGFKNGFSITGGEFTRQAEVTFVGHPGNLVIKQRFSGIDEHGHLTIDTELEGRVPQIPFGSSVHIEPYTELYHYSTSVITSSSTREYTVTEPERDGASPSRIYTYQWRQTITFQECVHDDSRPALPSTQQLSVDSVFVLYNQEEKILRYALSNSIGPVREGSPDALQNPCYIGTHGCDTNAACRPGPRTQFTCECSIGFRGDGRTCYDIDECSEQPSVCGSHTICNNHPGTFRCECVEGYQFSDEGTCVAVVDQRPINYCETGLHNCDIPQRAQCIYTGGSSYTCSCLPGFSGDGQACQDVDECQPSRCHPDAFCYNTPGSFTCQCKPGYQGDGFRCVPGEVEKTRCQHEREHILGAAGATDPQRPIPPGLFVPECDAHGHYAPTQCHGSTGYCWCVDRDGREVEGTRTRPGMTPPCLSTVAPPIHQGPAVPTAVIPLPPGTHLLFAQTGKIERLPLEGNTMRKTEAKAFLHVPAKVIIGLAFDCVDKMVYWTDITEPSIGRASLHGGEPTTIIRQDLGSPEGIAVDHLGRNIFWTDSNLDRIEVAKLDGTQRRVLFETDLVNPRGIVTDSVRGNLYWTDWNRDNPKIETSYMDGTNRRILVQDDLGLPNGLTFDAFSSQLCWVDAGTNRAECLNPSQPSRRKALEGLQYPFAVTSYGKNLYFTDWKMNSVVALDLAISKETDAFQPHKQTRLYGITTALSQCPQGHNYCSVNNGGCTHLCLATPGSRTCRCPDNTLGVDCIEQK
Sequence of HSP70 (P0DMV8 whole entry): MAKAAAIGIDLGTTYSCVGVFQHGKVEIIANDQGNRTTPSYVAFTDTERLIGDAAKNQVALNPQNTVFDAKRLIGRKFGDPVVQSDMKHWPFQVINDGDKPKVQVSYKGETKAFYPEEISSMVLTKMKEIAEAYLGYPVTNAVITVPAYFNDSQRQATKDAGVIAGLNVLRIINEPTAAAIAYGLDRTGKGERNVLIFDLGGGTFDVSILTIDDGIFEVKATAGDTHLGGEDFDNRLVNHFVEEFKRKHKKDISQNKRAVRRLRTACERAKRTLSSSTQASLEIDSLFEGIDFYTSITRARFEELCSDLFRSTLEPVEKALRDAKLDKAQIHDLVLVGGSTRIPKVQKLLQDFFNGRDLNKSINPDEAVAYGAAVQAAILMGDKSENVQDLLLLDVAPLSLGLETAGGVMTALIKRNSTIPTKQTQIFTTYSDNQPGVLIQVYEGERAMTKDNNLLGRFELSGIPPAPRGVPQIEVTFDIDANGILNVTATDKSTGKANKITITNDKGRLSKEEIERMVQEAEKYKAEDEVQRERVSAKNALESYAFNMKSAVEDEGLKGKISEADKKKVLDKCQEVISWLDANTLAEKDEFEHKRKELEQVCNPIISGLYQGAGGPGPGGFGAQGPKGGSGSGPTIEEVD

Fc-LPD N346, 362, 409Q (from UniProt P28300 22-169) (Fc fusion)
Ratio Fc-LPD-N346, 409, 456Q:Fc [1]: 13.7 | Ratio Fc-LPD-N346, 409, 456Q:Fc [2]: 194

HSP70 (from UniProt P0DMV8 1-641)
Median RFU [3]: 130 RFU

Fc-LPD (lysyl oxidase prodomain fused to Fc antibody fragment) (Fc fusion)
Ratio Fc-LPD:Fc [1]: 9 | Ratio Fc-LPD:Fc [2]: 78.4 | pEC50 [4]: 7.39 | pEC50 [5]: 7.39 | Ratio Fc-LPD:Fc-LPDN346, 409, 456Q [6]: 0.7 | Ratio Fc-LPD:Fc-LPDN346, 409, 456Q [7]: 0.4
